Reference: patent US20210318322A1 (Janssen / Centocor, published 2021)
Changes are numbered by the printed parent chain. Like-named read-outs stand apart in the source and are kept apart here.

How the values were obtained:
[1] = target: T1, cynomolgus VISTA extracellular domain (cynomolgus, UniProt A0A7N9IB00 33-194); assay: SPR ProteOn
T1 construct: extracellular domain; also called cyno VISTA ECD; SB0361 (cyno (cynomolgus))
T1 sequence: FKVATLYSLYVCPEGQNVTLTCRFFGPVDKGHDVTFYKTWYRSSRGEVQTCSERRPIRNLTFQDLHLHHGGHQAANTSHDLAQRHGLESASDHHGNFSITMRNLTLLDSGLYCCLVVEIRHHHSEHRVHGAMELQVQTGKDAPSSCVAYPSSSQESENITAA

[2] = target: T1, cynomolgus VISTA extracellular domain; assay: SPR ProteOn; remark: listed apart in the source
[3] = target: T2, human VISTA expressed on cells (human, UniProt Q9H7M9 33-295); assay: cell-based or functional assay
T2 sequence: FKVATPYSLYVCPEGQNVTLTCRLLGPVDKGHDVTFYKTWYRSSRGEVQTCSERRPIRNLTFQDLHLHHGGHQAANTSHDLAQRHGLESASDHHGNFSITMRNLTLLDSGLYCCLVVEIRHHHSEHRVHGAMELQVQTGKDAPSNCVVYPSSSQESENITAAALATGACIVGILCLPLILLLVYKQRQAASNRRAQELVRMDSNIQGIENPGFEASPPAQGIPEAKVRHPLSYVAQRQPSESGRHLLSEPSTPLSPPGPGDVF

[4] = target: T2, human VISTA expressed on cells; assay: cell-based or functional assay; remark: listed apart in the source
[5] = target: T2, human VISTA expressed on cells; assay: cell-based or functional assay; remark: listed apart in the source
[6] = target: T3, human VISTA extracellular domain (human, UniProt Q9H7M9 33-194); assay: SPR ProteOn
T3 construct: also called human VISTA ECD; SB0361 (human)

B1: VSTB112 (antibody, human IgG1, kappa)
heavy: not shown
light: DIQMTQSPSSLSASVGDRVTITCRASQSIDTRLNWYQQKPGKAPKLLIYSASSLQSGVPSRFSGSGSGTDFTLTISSLQPEDFATYYCQQSAYNPITFGQGTKVEIKRTVAAPSVFIFPPSDEQLKSGTASVVCLLNNFYPREAKVQWKVDNALQSGNSQESVTEQDSKDSTYSLSSTLTLSKADYEKHKVYACEVTHQGLSSPVTKSFNRGEC
notes: also called S2; INX Code 2
With B1 as the binder, how does the Kd [1] read?
The Kd was 86.6 pM.

B2: VSTB174 (antibody, human IgG1, kappa)
heavy: not shown
light: B1 light
For B2, which Kd [2] is on record?
The Kd was 86.6 pM.

B3: VSTB116 (antibody, human IgG1, kappa)
heavy: not shown
light: B1 light with D30N, R32N, S50A, S91A, A92R, Y93D, N94T
notes: also called S5; INX Code 5
What does the source list for B3?
IC50, CPM in the SEB assay [3]: -1.44 log10 of antibody concentration; IC50, IFN-gamma in the SEB assay [3]: -0.35 log10 of antibody concentration; IC50, CPM in the MLR [4]: -0.78 log10 of antibody concentration; IC50, IFN-gamma in the MLR [4]: -0.16 log10 of antibody concentration; EC50 IFN-gamma production, MLR [5]: 0.69 µg/mL; EC50 proliferation, MLR [5]: 0.17 µg/mL; Kd [6]: 213 pM; koff [6]: 0.000267 s⁻¹; kon [6]: 1.25e+06 M⁻¹ s⁻¹; Kd [1]: 137 pM; koff [1]: 0.000117 s⁻¹; kon [1]: 851000 M⁻¹ s⁻¹

B4: VSTB50 (antibody, human IgG1, kappa, V domains shown)
VH: QVQLVQSGSELKKPGASVKVSCKASGYTFTNYGLNWVRQAPGQGLEWMGWINPYTGEPTYADDFKGRFVFSLDTSVSTAYLQICSLKAEDTAVYYCAREGYGNYIFPYWGQGTLVTVSS
VL: DIVMTQTPLSLSVTPGQPASISCRASESVDTYANSLMHWYLQKPGQPPQLLIYRASNLESGVPDRFSGSGSGTDFTLKISRVEAEDVGVYYCQQTNEDPRTFGQGTKLEIKR
notes: also called S41; INX Code 41
How did the “IC50, CPM in the SEB assay” value [3] turn out when B4 was run?
The value was -0.74 log10 of antibody concentration.

What about the “IC50, IFN-gamma in the SEB assay” value [3] of the same binder?
Its value is 1.69 log10 of antibody concentration.

What about the “IC50, CPM in the MLR” value [4] of the same binder?
Its value is -0.12 log10 of antibody concentration.

And the “IC50, IFN-gamma in the MLR” value [4]?
Its value is 0.06 log10 of antibody concentration.

And the “EC50 IFN-gamma production, MLR” value [5]?
Its value is 1.14 µg/mL.

And the “EC50 proliferation, MLR” value [5]?
Its value is 0.77 µg/mL.

What about the Kd [6] of the same binder?
Its Kd is 632 pM.

And the koff [6]?
The koff was 0.000305 s⁻¹.

What about the kon [6] of the same binder?
The kon was 482000 M⁻¹ s⁻¹.

What about the Kd [1] of the same binder?
Its Kd is 310 pM.

And the koff [1]?
Its koff is 0.000219 s⁻¹.

What about the kon [1] of the same binder?
The kon was 708000 M⁻¹ s⁻¹.

B5: VSTB60 (antibody, human IgG1, kappa, V domains shown)
VH: B4 VH with L34M, N35T, P53T, P58S, E99D, G100Y, N103I, I105V, F106S, P107A
VL: B4 VL with T31N, L36F, P47S, T95S, N96H, R100Y
notes: also called S47; INX Code 47
Which “IC50, CPM in the MLR” value [4] does the source give for B5 here?
Its value is 0.02 log10 of antibody concentration.

And the “IC50, IFN-gamma in the MLR” value [4]?
The value was 0.4 log10 of antibody concentration.

And the “EC50 IFN-gamma production, MLR” value [5]?
Its value is 2.48 µg/mL.

What about the “EC50 proliferation, MLR” value [5] of the same binder?
Its value is 1.04 µg/mL.

And the Kd [6]?
Its Kd is 356 pM.

What about the koff [6] of the same binder?
The koff was 0.000183 s⁻¹.

What about the kon [6] of the same binder?
Its kon is 514000 M⁻¹ s⁻¹.

What about the Kd [1] of the same binder?
The Kd was 252 pM.

What about the koff [1] of the same binder?
Its koff is 0.000143 s⁻¹.

What about the kon [1] of the same binder?
Its kon is 569000 M⁻¹ s⁻¹.

B6: VSTB95 (antibody, human IgG1, kappa, V domains shown)
VH: EVQLVESGGGLVQPGGSLRLSCAASGFTFRNYGMSWVRQAPGKGLEWVASIISGGSYTYYPDSVKGRFTISRDNAKNSLYLQMNSLRAEDTAVYYCARIYDHDGDYYAMDYWGQGTTVTVSS
VL: DIVMTQSPLSLPVTPGEPASISCRSSQSIVHSNGNTYLEWYLQKPGQSPQLLIYKVSNRFSGVPDRFSGSGSGTDFTLKISRVEAEDVGVYYCFQGSHVPWTFGQGTKLEIKR
notes: also called S16; INX Code 16
Which results are given for B6?
IC50, CPM in the SEB assay [3]: -1.12 log10 of antibody concentration; IC50, IFN-gamma in the SEB assay [3]: 0.05 log10 of antibody concentration; IC50, CPM in the MLR [4]: -0.54 log10 of antibody concentration; IC50, IFN-gamma in the MLR [4]: 0.22 log10 of antibody concentration; EC50 IFN-gamma production, MLR [5]: 1.67 µg/mL; EC50 proliferation, MLR [5]: 0.29 µg/mL; Kd [6]: 126 pM; koff [6]: 6.99e-05 s⁻¹; kon [6]: 554000 M⁻¹ s⁻¹; Kd [1]: 192 pM; koff [1]: 8.53e-05 s⁻¹; kon [1]: 443000 M⁻¹ s⁻¹

B7: VSTB53 (antibody, human IgG1, kappa, V domains shown)
VH: QVQLVQSGAEVKKPGASVKVSCKASGYTFTHYTIHWVRQAPGQGLEWMGYIIPSSGYSEYNQKFKDRVTMTRDTSTSTVYMELSSLRSEDTAVYYCARGAYDDYYDYYAMDYWGQGTLVTVSS
VL: B6 VL with S28T, G96A
notes: also called S43; INX Code 43
Which results are given for B7?
IC50, CPM in the SEB assay [3]: -1.06 log10 of antibody concentration; IC50, IFN-gamma in the SEB assay [3]: -1.05 log10 of antibody concentration; IC50, CPM in the MLR [4]: -0.33 log10 of antibody concentration; IC50, IFN-gamma in the MLR [4]: 0.27 log10 of antibody concentration; EC50 IFN-gamma production, MLR [5]: 1.88 µg/mL; EC50 proliferation, MLR [5]: 0.47 µg/mL; Kd [6]: 26.4 pM; koff [6]: 3.3e-05 s⁻¹; kon [6]: 1.25e+06 M⁻¹ s⁻¹; Kd [1]: 52.8 pM; koff [1]: 6.22e-05 s⁻¹; kon [1]: 1.18e+06 M⁻¹ s⁻¹
